Measured values taken from US20160075789A1.

B1: mAbEDA1-EctoD2 (antibody, mouse IgG1, V domains shown)
VH: EVMLEESGGGLVKSGGSLKLSCAASGFTFSTYAMSWVRQTPGKRLEWVAAISDGGDNTYYLDSVKGRFTISRDNAKNTLYLQMSSLRSEDSALYYCARQYNDYEAMDYWGQGTSLTVSS
VL: DIVLTQSPTSLAVSLGQRATISCRASESVDSYGSSFMHWYQQKPGQPPKLLFYRASNLESGIPARFSGSGSRTDFTLTINPVEADDVATYYCQQSNEDPFTFGSGTKLEIKR
B2: mAbEDA1-EctoD3 (antibody, mouse IgG1, V domains shown)
VH: QVQLHQSGAELARPGASVKLSCKASGYTFTSYGISWVKQRTGQGLEWIGEVYPRSGDTYYHDYFEGKATLTADKSSSTAYMELRSLTSEDSAVYFCARGDYADVWGTGTTVTVSS
VL: DIVLTQSPASLAVSLGQRATISCRASKSVSTFGNSYMLWYQQKPGQPPKLLIYLASNLESGVPARFSGSGSGTDFTLNIHPVEEEDAATYYCQNSRELPYTFGGGTKLEIKR

Experiments:
Fc-EDA1 (human) [1] = assay: sandwich ELISA, EctoD2 at capture, biotinylated EctoD3 at revelation (FIG. 24)
Fc-EDA1 (human) [2] = assay: cell-based or functional assay
Fc-EDA1 (human) [3] = assay: sandwich ELISA of Fc-EDA1 pre-incubated in buffer or mouse serum (FIG. 26)

Sequence of Fc-EDA1 (human) (Q92838 249-385): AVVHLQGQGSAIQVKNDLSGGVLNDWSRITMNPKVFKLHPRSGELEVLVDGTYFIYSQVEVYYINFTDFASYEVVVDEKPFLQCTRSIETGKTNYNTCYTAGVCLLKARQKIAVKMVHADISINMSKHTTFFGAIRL

Binder | concentration of Fc-EDA1 readily detected (Fc-EDA1 (human) [1]) [ng/mL] | cytotoxicity assay using EDAR-Fas Jurkat cells (PMS/MTS viability): antibody concentration at which 40 ng/mL of Fc-EDA1 is completely inhibited (Fc-EDA1 (human) [2]) [ng/mL] | cytotoxicity assay using EDAR-Fas Jurkat cells: stoichiometry of inhibition (antibodies per Fc-EDA1) (Fc-EDA1 (human) [2]) | most sensitive detection of Fc-EDA1 (Fc-EDA1 (human) [3]) [ng/mL]
B1 | < 1 | 125 | 5 | < 1
B2 | < 1 | – | – | < 1
